B1: YDL160C (protein, UniProt P39517 1-506, looked up)
ATP-dependent RNA helicase …: MGSINNNFNTNNNSNTDLDRDWKTALNIPKKDTRPQTDDVLNTKGNTFEDFYLKRELLMGIFEAGFEKPSPIQEEAIPVAITGRDILARAKNGTGKTAAFVIPTLEKVKPKLNKIQALIMVPTRELALQTSQVVRTLGKHCGISCMVTTGGTNLRDDILRLNETVHILVGTPGRVLDLASRKVADLSDCSLFIMDEADKMLSRDFKTIIEQILSFLPPTHQSLLFSATFPLTVKEFMVKHLHKPYEINLMEELTLKGITQYYAFVEERQKLHCLNTLFSKLQINQAIIFCNSTNRVELLAKKITDLGYSCYYSHARMKQQERNKVFHEFRQGKVRTLVCSDLLTRGIDIQAVNVVINFDFPKTAETYLHRIGRSGRFGHLGLAINLINWNDRFNLYKIEQELGTEIAAIPATIDKSLYVAENDETVPVPFPIEQQSYHQQAIPQQQLPSQQQFAIPPQQHHPQFMVPPSHQQQQAYPPPQMPSQQGYPPQQEHFMAMPPGQSQPQY
B2: YJR083C (protein, UniProt P47129 1-309, looked up)
Assembly-complementing factor …: MSEDQRVISQPIELHKLSIVDKHSQGQQQQPHQKQHEVQPESKSPRVTTPLKPKRLAIPISSPQRSTTNQSPVSDHASPISTDQDLIYKLAAKHREINELSFKLEVAQKELKQLELQFKDTLPRNGQQKLGNQNPSEYLSTFTKRIQQTFVDVNNSPNMLKGKKSINDFFSKPNNNVNSNINNTLPNRKPNPPPNRSQRMQNIAPSRSSESTPTSGPPLLPPRNTMKNANTTATAGENTPFLQRILNKFNQMNMEEDEFDDLLEKRKSKKDHYYIKENLGYEYDEVRSEDEDDEEFEPMGDIPVHLFKR
B3: YNL255C (protein, UniProt P53849 1-153, looked up)
Zinc finger protein GIS2: MSQKACYVCGKIGHLAEDCDSERLCYNCNKPGHVQTDCTMPRTVEFKQCYNCGETGHVRSECTVQRCFNCNQTGHISRECPEPKKTSRFSKVSCYKCGGPNHMAKDCMKEDGISGLKCYTCGQAGHMSRDCQNDRLCYNCNETGHISKDCPKA
B4: YNL094W (protein, UniProt P53933 1-587, looked up)
Phosphatidate phosphatase APP1: MNSQGYDESSSSTAATSGPTSGDPRMGKKQRFMNLIRTTKDVYIPNLTSSISQKTMDGIRSTTNSFEGYNDLPMELPHNTTITYFPTYTTTNLVDPDGLSAPRKDFETTVRCAVSYPGNPTSRRNRWLLSLCKQYLRTGTAEADVAPVVPPHLEEDSGDLNDSQSSIESSLSSKSENRYSHMGIQEEDVLNERIQGFLSKKVPNTPVVVDLLPKDKLRGDTASFFGTTDSYGNLLIKAETDFLPSKINITLDTPIEGHADPISETFPANYVSPYGIGLISDIDDTIKHTGVTGDRRSMFRNVFIHDVQSWVIDGVPLWYKTLHDVADVDFFYVSNSPIQTFTLLKQYICANFPPGPIFLKQYSGNFFSTIMTSSANRKIQPIANILKDFPKKKFILVGDSGEHDLEAYTTTALQFPNQILAIYIRCCSNSMSDVPSHDEEVMNEVNNIIELQQRPMQMTKSTVRTRRRPPPPPIPSTQKPSLTEEQTESIRMSRRNKDENNAKRVAPPPLPNRQLPNLDANTYYVPSSQNDYGMYGAFMDKKADEWKRRVMDSIQKLSNQDTTLMFFSDPALSLEDSIRRIREKYSN
B5: YGL099W (protein, UniProt P53145 1-640, looked up)
Large subunit GTPase 1: MPPKEAPKKWKAPKGPKPTHRKNKNKLELGRAIKYARQKENAIEYLPDGEMRFTTDKHEANWVKLRSVTQESALDEFLSTAALADKDFTADRHSNVKIIRMDSGNDSATSQGFSMTNEQRGNLNAKQRALAKDLIVPRRPEWNEGMSKFQLDRQEKEAFLEWRRKLAHLQESNEDLLLTPFERNIEVWKQLWRVVERSDLVVQIVDARNPLLFRSVDLERYVKESDDRKANLLLVNKADLLTKKQRIAWAKYFISKNISFTFYSALRANQLLEKQKEMGEDYREQDFEEADKEGFDADEKVMEKVKILSIDQLEELFLSKAPNEPLLPPLPGQPPLINIGLVGYPNVGKSSTINSLVGAKKVSVSSTPGKTKHFQTIKLSDSVMLCDCPGLVFPNFAYNKGELVCNGVLPIDQLRDYIGPAGLVAERIPKYYIEAIYGIHIQTKSRDEGGNGDIPTAQELLVAYARARGYMTQGYGSADEPRASRYILKDYVNGKLLYVNPPPHLEDDTPYTREECEEFNKDLYVFDRLPDTRKEQVQNAAKAKGIDIVDLARDLNQLTFSAHTGGDTQKEAKSVTHGGKQAALYNAAEDLDRDFFKMNNVEGRLSTPFHKVQNSSAGKRHNKKNKSKNAKSKVFSIENN
B6: YOR284W (protein, UniProt Q12134 1-243, looked up)
Protein HUA2: MQQTKFGKMYLDHDSVVEYSEDEIVEADRITLGYKKRLSMIENQMRHLLEDFSLDVQQIEPILADLQKYYDAFLQLLQKRNKSLQCKRSTHQPVPSPMNSQTSTNAKVNLSGKLMKFQLNSVQKFDEENILRILQNKIEFEHYFQIDKGKKQKVLLLAVYQCLNGPTRLHKVLNIEGIIHNNSIRTILGKQVSSSKWTVFLYDVKLVLLAHRQDVPNLETSKMIVRYGDLFPCALYFKDHTAY
B7: YNL287W (protein, UniProt P32074 1-935, looked up)
Coatomer subunit gamma: MSAHTYKKFENSTSGDLPDKMTIYQDCMNTFNESPVNSKRCRLLISRLLRLLAQGETFPQNEATALFFSISKLFQHQNDPLRQAVYLAIKELSGISEDVLMATSSIMKDVQNGSDLIKPDAIRSLTYVLDESTAFSAERLLKSAVVSRHPSISSAALCTSYHLLPISEVTIRRFTNETQEAVLDLKQFPNQHGNSEYYPNSTYISQYHALGLLYQLKKTDKMALLKLVRHFSENNSMKNQLAKVELVKIVNDLIYRDPQLFSQFRPLLSDWLSNKFESVQLETAKLITSFATRNSRLVAPELYAAAISALQSLLTVPRVSSRFAALRILNRISMVSPEKIVVCNPELESLINDSNRNISTYAITTLLKTGTSKNISSLISTITNFIHDVSDDFKIIIIDAVRTLSLNFPQEWKSILNFLIDVLKNSEGGFKFKNSIVEALIDIVSFVPQSKELALENLCDFIEDCEFNEILVRILHLLGKEGPSAPNPSLYVRHIYNRVVLENSIIRSAAVVALSKFALTKNDPTLYESIISLLKRIANDKDDEVRDRATIALEFIDSARNKDDVIAQNLIESKYFYDIPSLESKLSSYISSNTDSFATAFDVNQVRKFTEDEMKAINLKRKQEQIFNQKSETTLDTTPEAESVPEKRADANSFAGPNLDDHQEDLLATKYADELLSIEQIKPFGQLVNSSRAISLTEPEAEFVVRGVKHLFKDNVVLQFNITNTLTDIALDNVSVVCTPEISDEAELEELFTLQVDRLLPSEEAACYVAFKKLDEIVMEGFLNNLTFTTKEINPDTNEPFDGDEGFQDEYEIDSIFLNAGDYVKSSFTGNFSATFDELPCEEVAVFNIQEDLSIQEVVDKIILNSSCLPVESTQFAPSDSNSHTLKLFGKSALTGSKVALQIKMIKSSKGLALKVHGKGEDSLLCSDLVNGLMQ
B8: YBR130C (protein, UniProt P38272 1-425, looked up)
SWI5-dependent HO expression …: MSDQDNTQTSSSKLAPHHNIFMANLESSPTKDRNTSSQNASSSRVIESLHDQIDMLTKTNLQLTTQSQNLLSKLELAQSKESKLLENLNLLKNENENLNSIFERKNKKLKELEKDYSELSNRYNEQKEKMDQLSKLAKNSSAIEQSCSEKLQNMEVNYNSLLESQNLYRDHYSDEISKLNEKIGLLELELSNQNLNYGSDTSSNSDIELNLNKFNDSVKDLKSLETEKDSKLSKIITHSLDELNLQSWLNLYQTNENLISTFAEKMDLKDVLKRNDEKISNKGAVVQTLKKNVQTQVESNNADALSSNNAQDMLPIKMVKLRKTPNTNDSSSNGNSSNNKRRSFYTASPLLSSGSIPKSASPVLPGVKRTASVRKPSSSSSKTNVTHNNDPSTSPTISVPPGVTRTVSSTHKKKGNSMVVHGAQS
B9: YAR042W (protein, UniProt P35845 1-1188, looked up)
Oxysterol-binding protein …: MEQPDLSSVAISKPLLKLKLLDALRQGSFPNLQDLLKKQFQPLDDPNVQQVLHLMLHYAVQVAPMAVIKEIVHHWVSTTNTTFLNIHLDLNERDSNGNTPLHIAAYQSRGDIVAFLLDQPTINDCVLNNSHLQAIEMCKNLNIAQMMQVKRSTYVAETAQEFRTAFNNRDFGHLESILSSPRNAELLDINGMDPETGDTVLHEFVKKRDVIMCRWLLEHGADPFKRDRKGKLPIELVRKVNENDTATNTKIAIDIELKKLLERATREQSVIDVTNNNLHEAPTYKGYLKKWTNFAQGYKLRWFILSSDGKLSYYIDQADTKNACRGSLNMSSCSLHLDSSEKLKFEIIGGNNGVIRWHLKGNHPIETNRWVWAIQGAIRYAKDREILLHNGPYSPSLALSHGLSSKVSNKENLHATSKRLTKSPHLSKSTLTQNDHDNDDDSTNNNNNKSNNDYDDNNNNNNNDDDDYDDDDESRPLIEPLPLISSRSQSLSEITPGPHSRKSTVSSTRAADIPSDDEGYSEDDSDDDGNSSYTMENGGENDGDEDLNAIYGPYIQKLHMLQRSISIELASLNELLQDKQQHDEYWNTVNTSIETVSEFFDKLNRLTSQREKRMIAQMTKQRDVNNVWIQSVKDLEMELVDKDEKLVALDKERKNLKKMLQKKLNNQPQVETEANEESDDANSMIKGSQESTNTLEEIVKFIEATKESDEDSDADEFFDAEEAASDKKANDSEDLTTNKETPANAKPQEEAPEDESLIVISSPQVEKKNQLLKEGSFVGYEDPVRTKLALDEDNRPKIGLWSVLKSMVGQDLTKLTLPVSFNEPTSLLQRVSEDIEYSHILDQAATFEDSSLRMLYVAAFTASMYASTTNRVSKPFNPLLGETFEYARTDGQYRFFTEQVSHHPPISATWTESPKWDFYGECNVDSSFNGRTFAVQHLGLWYITIRPDHNISVPEETYSWKKPNNTVIGILMGKPQVDNSGDVKVTNHTTGDYCMLHYKAHGWTSAGAYEVRGEVFNKDDKKLWVLGGHWNDSIYGKKVTARGGELTLDRIKTANSATGGPKLDGSKFLIWKANERPSVPFNLTSFALTLNALPPHLIPYLAPTDSRLRPDQRAMENGEYDKAAAEKHRVEVKQRAAKKEREQKGEEYRPKWFVQEEHPVTKSLYWKFNGEYWNKRKNHDFKDCADIF

Each molecule was assayed on ABP1 (assay: DHFR-PCA on solid medium, bait ABP1 (Fig. 1B)). Conditions: bait ABP1, label = prey; 2-4 replicates.
Type: cell-based, Saccharomyces cerevisiae
From the text: Supplement 41467_2021_21873_MOESM8_ESM.xlsx, sheet "Fig1B" | column: medsize; medrep; Ratio; Score
B1 was tested, and the “medrep (log2 median colony size normalized to plate background, PCA score)” value was 1.807.
For B2, the “medrep (log2 median colony size normalized to plate background, PCA score)” value was 1.804.
With B3 the “medrep (log2 median colony size normalized to plate background, PCA score)” value was 2.801.
B4 was tested, and the “medrep (log2 median colony size normalized to plate background, PCA score)” value was 1.857.
B5 was tested, and the “medrep (log2 median colony size normalized to plate background, PCA score)” value was 1.414.
With B6 the “medrep (log2 median colony size normalized to plate background, PCA score)” value was 3.262.
For B7, the “medrep (log2 median colony size normalized to plate background, PCA score)” value was 2.55.
B8 was tested, and the “medrep (log2 median colony size normalized to plate background, PCA score)” value was 2.63.
B9 was tested, and the “medrep (log2 median colony size normalized to plate background, PCA score)” value was 1.62.

Same assay, conditions: bait ABP1, label = prey; only significant differences showed; PPIs completely lost have a ratio of 0.1 and the gained PPIs 2.5
B1 was tested, and the “Ratio (SH3-deleted/WT medrep)” value was 2.5.
For B2, the “Ratio (SH3-deleted/WT medrep)” value was 0.1.
For B4, the “Ratio (SH3-deleted/WT medrep)” value was 0.1.
B5 was tested, and the “Ratio (SH3-deleted/WT medrep)” value was 0.1.
In the case of B6, the “Ratio (SH3-deleted/WT medrep)” value is reported as 0.1.
In the case of B7, the “Ratio (SH3-deleted/WT medrep)” value is reported as 1.797.
With B9 the “Ratio (SH3-deleted/WT medrep)” value was 2.5.

From PMC7954794, “Protein context shapes the specificity of SH3 domain-mediated interactions in vivo” (Nature Communications, 2021)
